Assay results taken from publication PMC9684487, “Human antibody recognition and neutralization mode on the NTD and RBD domains of SARS-CoV-2 spike protein” (Scientific Reports, 2022).

Target: T1, S protein trimer with D614G mutation (SARS-CoV-2, D614G, D614G)
T1 construct: also called Spike; homotrimeric S protein
Test: cryo-EM structure
Conditions: both partners purified

Row | Binder | stoichiometry N
1 | NIBIC-71 (antibody, V domains shown, also called recombinant mAb NIBIC-71) VH: EVQLVESGGGLIQPGGSLRLSCEASGLIVSSNYMTWVRQAPGKGLEWVSVIYSGGSTFYADSVKGRFTVSRDNSKNTLYLQMNNLSPEDTAVYYCARDLGPYGVDVWGQGTTVTVSS VL: AIQLTQSPSSLSASVGDRVTITCRASQGISSYLAWYQQTPGKAPKLLIYAASTLQSGVPSRFSGSGSGTDFTLTISSLQPEDFATYYCQQLNSYPPFTFGPGTKVDIK | 2 Fabs per S protein trimer
2 | 7G7/κ (antibody, V domains shown, also called 7G7-IgG1κ; 7G7/κ (IgG1/Igκ); source: Expi293F, cotransfected with IgH and IgL vectors, purified (HiTrap Protein G)) VH: QVQLVESGGGVVQPGRSLRLSCIASGFTFRNYAMYWVRQAPGKGLEWVAVIWYDGSNKFYTDSVKGRFTISRDNSKNSLYLQMNSLRAEDTAVYFCARDQGFGDNYYYYGMDVWGQGTTVTVSS VL: SYELTQPPSVSVSPGQTARISCSGDALPKEYAYWYQQKPGQAPVLVIYKDSERPSGIPERFSGSSSGTTVTLTISGVQAEDEADYYCQLADSSMHYVVFGGGTKLTVL | 3 Fabs per S protein trimer
